Reference: patent publication US20220298212A1 (Molecular Partners, published 2022)
Blank lines part the entries; values can stand above or below the binder they belong to.

Target: T1, biotinylated human 4-1BB (recombinant Fc fusion protein of the extracellular domain of human 4-1BB) (human, UniProt Q07011 24-186, biotinylated (site not stated))
T1 construct: Bought from BPS Bioscience; tie to the Fc fusion is by the Materials paragraph; also called h4-1BB; CD137; not shown: Fc part of the purchased fusion (BPS Bioscience)
Assay: SPR (ProteOn), biotinylated human 4-1BB on NLC chip, PBST
Procedure: Briefly, biotinylated human 4-1 BB was diluted in PBST (PBS, pH 7.4 containing 0.005% Tween 20®) and coated on a NLC chip (BioRad) to a level of around 320 resonance units (RU) (600 RU for single trace SPR measurements). The interaction of ankyrin repeat protein and h4-1 BB was then measured by injecting 200 μl running buffer (PBS, pH 7.4 containing 0.005% Tween 20®) containing serial dilutions of ankyrin repeat proteins covering a concentration range between 50 nM and 0.5 nM for multi-trace SPR measurements or 50 nM for single trace measurements (on-rate measurement), followed by a running buffer flow for at least 30 minutes at a constant flow rate of 100 μl/min (off-rate measurement). The regeneration was performed using 30 μl of 10 mM Glycine pH 2 followed by 30 μl of 124 mM H₃PO₄. The signals (i.e. resonance unit (RU) values) of the interspots and a reference injection (i.e. injection of running buffer only) were subtracted from the RU traces obtained after injection of ankyrin repeat protein (double-referencing). Based on the SPR traces obtained from the on-rate and off-rate measurements, the on- and off-rate of the corresponding ankyrin repeat protein—4-1 BB interaction was determined.
Dissociation constants (KD) were calculated from the estimated on- and off-rates using standard procedures known to the person skilled in the art.

B1: DARPin® protein #5 (designed binder)
chain: MRGSHHHHHHGSDLGKKLLEAARAGQDDEVRELLKAGADVNAKDQEHGSTPLHLAANYGHLEIVEVLLKAGADVNAKNWWGNTPLHLAAVYGHLEIVEVLLKAGADVNAKDNHGHTPLHLAAWYGHLEIVEVLLKAGADVNAQDKSGKTPADLAADAGHEDIAEVLQKAA
Kd: 0.35 nM

B2: DARPin® protein #8 (designed binder)
chain: MRGSHHHHHHGSDLGKKLLEAARAGQDDEVRELLKAGADVNAKDRFGSTPLHIAAREGHLEIVEVLLKAGADVNAKDSWGATPLHIAAWRGHLEIVEVLLKAGADVNAKDRWGRTPLHIAAWTGHLEIVEVLLKACADVNAQDKSGKTPADLAADVGLEDIAEVLQKLN
Kd: 0.02 nM

B3: DARPin® protein #14 (designed binder)
chain: MRGSHHHHHHGSDLGQKLLYAAFYGQDDEVRILLAAGADVNAKDFFGTTPLHWAAHAGHLEIVEVLLKAGADVNAKDQWGTTPLHYAAYYGHLEIVEVLLKAGADVNAQDDKGFTPADLAAIVGHEDIAEVLQKLN
Kd: 0.51 nM

B8: DARPin® protein #2 (designed binder)
chain: MRGSHHHHHHGSDLGKKLLVAANVGQDDEVRILLAAGADVNAKDYHGYTPLHHAATYGHLEIVEVLLKAGADVNAKDQTGLTPLHLAAAKGHLEIVEVLLKAGADVNAQDHHGYTPADLAAFVGHEDIAVVLQKLN
Kd: 0.86 nM

B9: DARPin® protein #6 (designed binder)
chain: MRGSHHHHHHGSDLGKKLLVAANVGQDDEVRILLAAGADVNAKDYHGYTPLHHAATYGHLEIVEVLLKAGADVNAKDQTGLTPLHLAAAKGHLEIVEVLLKAGADVNAQDHHGYTPADLAAFVGHEDIAVVLQKLN
Kd: 2.58 nM

B10: DARPin® protein #4 (designed binder)
chain: MRGSHHHHHHGSDLGKKLLEAARAGQDDEVRELLKAGADVNAKDTYGETPLHLAAWKGHLEIVEVLLKAGADVNAKDSIGITPLHVAAHHGHLEIVEVLLKAGADVNAKDKWGRTPLHLAALLGHLEIAEVLLKAGADVNAQDKSGKTPADLAADAGHDDIAEVLQKLN
Kd: 2.25 nM

B12: DARPin® protein #7 (designed binder)
chain: MRGSHHHHHHGSDLGSKLLNAARKGQDDEVRILLAAGADVNAKDYYGQTPLHLAAVFGHLEIVEVLLKAGADVNAKDVLGRTPLHVAAYAGHLEIAEVLLKAGADVNAQDFDGFTPADLAAYVGLEDIAEVLQKLN
Kd: 0.54 nM

B14: DARPin® protein #9 (designed binder)
chain: MRGSHHHHHHGSDLGEKLLHAAYYGQDDEVRILLAAGADVNAKDNIGVTPLHFAAYFGHLEIVEVLLKAGADVNAQDYYGKTPADLAAYHGHEDIAEVLQKLN
Kd: 0.19 nM

B17: DARPin® protein #3 (designed binder)
chain: MRGSHHHHHHGSDLGRKLLQAAQLGQDDEVRELLKAGADVNAKDSRGITPLHVAAWQGHLEIVEVLLKASADVNAKDHAGITPLHLAAFLGHLEIVEVLLKAGADVNAQDQEGRTPADLAALQGHEDIAKVLQKLN
Kd: 1.25 nM

B20: DARPin® protein #21 (designed binder)
chain: MRGSHHHHHHGSDLGEKLLTAAYYGQDDEVRILLAAGADVNAKDKQGLTPLHYAAAVGHLEIVEVLLKAGTDVNAKDFYGETPLHLAASRGHLEIVEVLLKAGADVNAQDKSGKTPADLAADAGHEDIAEVLQKAA
Kd: 0.16 nM

B22: DARPin® protein #1 (designed binder)
chain: MRGSHHHHHHGSDLGQKLLKAAQEGQDDEVRELLKAGADVNAKDLRGITPLHVAAWQGHLEIVEVLLKAGADVNAKDSKGETPLHLAAFRGHLEIVEVLLKAGADVNAQDQQGETPADLAALAGHVDIAEVLQKAA
Kd: 0.47 nM

Second part, the binder after the results:

Kd: 0.38 nM
B4: DARPin® protein #11 (designed binder)
chain: MRGSHHHHHHGSDLGWKLLSAAWQGQDDEVRILLAAGADVNAKDTFGTTPLHWAAHAGHLEIVEVLLKAGADVNAKDQWGTTPLHYAAYYGHLEIVEVLLKAGADVNAQDDKGFTPADLAAIVGHEDIAEVLQKLN

Kd: 5 nM
B5: DARPin® protein #15 (designed binder)
chain: MRGSHHHHHHGSDLGQKLLYAAYYGQDDEVRILLAAGADVNAKDFFGTTPLHWAAHAGHLEIVEVLLKAGADVNAKDQWGTTPLHYAAYQGHLEIVEVLLKAGADVNAQDTTGATPADLAAQAGHEDIAEVLQKLN

Kd: 0.74 nM
B6: DARPin® protein #12 (designed binder)
chain: MRGSHHHHHHGSDLGQKLLHTAYDGQDDEVRILLAAGADVNAKDFFGTTPLHWAAHAGHLEIVEVLLKAGADVNAKDQWGTTPLHYAAYYGHLEIVEVLLKAGADVNAQDDKGFTPADLAAIVGHEDIAEVLQKLN

Kd: 1.6 nM
B7: DARPin® protein #16 (designed binder)
chain: MRGSHHHHHHGSDLGAKLLNAAFFGQDDEVRILLAAGADVNAKDDYGHTPLHWAAVTGHLEIVEVLLKAGADVNAKDWLGETPLHHAAYEGHLEIVEVLLKAGADVNAQDEQGETPADLAAYEGHEDIAEVLLKAGADVNAQDDKGFTPADLAAIVGHEDIAEVLQKLN

Kd: 1.56 nM
B11: DARPin® protein #25 (designed binder)
chain: MRGSHHHHHHGSDLGKKLLEAARAGQDDEVRELLKAGADVNAKDEWGETPLHLAAWKGHLEIVEVLLKAGADVNAKDSIGITPLHVAAHHGHLEIVEVLLKAGADVNAKDKWGRTPLHLAALLGHLEIVEVLLKAGADVNAQDKSGKTPADLAADAGREDIAEVLQKLN

Kd: 0.5 nM
B13: DARPin® protein #17 (designed binder)
chain: MRGSHHHHHHGSDLGEKLLYAAYYGQDDEVRILLAAGADVNAKDHVGLTPLHYAAAIGHLEIVEVLLKAGADVNAKDHYGYTPLHYAAYKGHLEIVEVLLKAGADVNAQDSAGHTPADLAAHHGHEDIAEVLQKLN

Kd: 0.25 nM
B15: DARPin® protein #10 (designed binder)
chain: MRGSHHHHHHGSDLGDKLLHAAYYGQDDEVRILLAAGADVNAKDNIGVTPLHFAAYFGHLEIVEVLLKAGADVNAQDYYGKTPADLAAYHGHEDIAEVLQKLN

Kd: 1.47 nM
B16: DARPin® protein #18 (designed binder)
chain: MRGSHHHHHHGSDLGYKLLYAAAYGQDDEVRILLAAGADVNAKDQYGETPLHHAASHGHLEIVEVLLKAGADVNAKDTLGDTPLHLAAVVGHLEIVEVLLKAGADVNAQDTEGKTPADLAAYTGHEDIAEVLQKLN

Kd: 1.6 nM
B18: DARPin® protein #19 (designed binder)
chain: MRGSHHHHHHGSDLGKKLLEAARAGQDDEVRELLKAGADVNAKDTHGWTPLHVAALEGHLEIVEVLLKAGAYVNAKDEWGQTPLHVAAWRGHLEIVEVLLKAGADVNAKDRYGWTPLHIAAWLGHLEIAEVLLKAGADVNAQDKSGKTPADLAADAGQEDIVEVLQKLN

Kd: 0.69 nM
B19: DARPin® protein #13 (designed binder)
chain: MRGSHHHHHHGSDLGLKLLYAAAEGQDDEVRILLAAGADVNAKDTRGQTPLHYAAWFGHLEIVEVLLKAGADVNAKDWSGDTPLHVAAWRGHLEIVEVLLKAGADVNAQDNSGNTPADLAAWIGHEDIAEVLQKLN

Kd: 0.48 nM
B21: DARPin® protein #20 (designed binder)
chain: MRGSHHHHHHGSDLGEKLLHAAYYGQDDEVRILLAAGADVNAKDDQGLTPLHLAAAIGHLEIVEVLLKAGADVNAKDAYGETPLHLAARRGHLEIVEVLLKAGADVNAQDKSGKTPADLAADAGHEDIAEVLQKAA
